According to patent US20240190986A1 (ZHEJIANG NANOMAB TECHNOLOGY CENTER, published 2024):
Where a chain is given by its changes, count along the chain named.

B1: M001 (VHH)
VHH: EVQLVESGGGLVQAGGSLRLSCAASGSIFNINAMGWYRQAPGKEWERELVATISSSNSDNTYYKDSVKGRFTISTNTAKNTWYLQMNSLKPEDTAMYYCAAENYDRKDRYWGQGTQVTVSS
notes: Nanoantibody in TG1 supernatant in the screening ELISA; also called clone M001
B2: M003 (VHH)
VHH: B1 VHH with E1Q, A23T, S27N, N30S, A40P, S56T, D65E, Y104F, G112A
notes: Nanoantibody in TG1 supernatant in the screening ELISA; also called clone M003
B3: M005 (VHH)
VHH: EVQLVESGGGWVQSGGSLRLACAASGSSFGLNVVGWYRQAPDKQRELVASIGNGGRTTDYADSVKGRFTISSDNAKNTVFLQMNDLKPEDTAVYYCHLRASVTKGYWGQGTQVTVSS
notes: Nanoantibody in TG1 supernatant in the screening ELISA; also called clone M005
B4: M126 (VHH)
VHH: B3 VHH with S27D, Q39L, V93M, A100V, K104E
notes: Nanoantibody in TG1 supernatant in the screening ELISA; also called clone M126
B5: M010 (VHH)
VHH: QVQLVESGGGLVQAGGSLRLSCAASGSVSSINAMGWYRQGTGEVRKLVATMGSGGNTYYADSVKGRFFITRDYSKNTVSLQMNNLTPEDSATYYCAADRFGASIHEVDYWGKGTLVTVSS
notes: Nanoantibody in TG1 supernatant in the screening ELISA; also called clone M010
B6: M012 (VHH)
VHH: QVQLVESGGDLVQTGGSLRLSCVVSGSTFAINAMGWYRQAPGKERELVAAISSGGDSTHYADDVKGRFTISRDNAENTMYLQMKSLKPEDTAVYVCNARGCRDFHNPQALCVLRDYWGQGTQVTVSS
notes: Nanoantibody in TG1 supernatant in the screening ELISA; also called clone M012
B7: M032 (VHH)
VHH: EVQLVESGGGSVQAGGSLKISCAASGSVIDIGAMGWYRHITEKERKLVATINAGGNTYYADSVKGRFTISRDNAKYTVYLQMNSLKPEDTAMYYCAAEDINYTGTEAYYWGQGTQVTVSS
notes: Nanoantibody in TG1 supernatant in the screening ELISA; also called clone M032
B8: M044 (VHH)
VHH: QVQVVESGGGFVQAGGSLRLSCAASTPIISIAYMGWYRQISEKERQLVATINSGGKTYYADSVKGRFTISRDNAKNTLYLQMNMLKPEDTGMYYCAASNKDYNDYDPDWGQGTQVTVSS
notes: Nanoantibody in TG1 supernatant in the screening ELISA; also called clone M044; M044 antibody
B9: M047 (VHH)
VHH: QVQLVETGGGSVQAGGSLRLSCAASGSIASIDAMGWYRQVPGKEWERELVATISSSNSDNKYYKDSVKGRFTISTNIAKNTWYLQMNNLKPEDTAMYYCAAEDYDTKDRFWGQGTQVTVSS
notes: Nanoantibody in TG1 supernatant in the screening ELISA; also called clone M047
B10: M050 (VHH)
VHH: EVQLQESGGGLVQAGGSLRLSCAASGAVSSINAMGWYRQTPEKVRKLVATMGSGGNTYYADSVKGRFTISRDYAKNTVALQMNNLIPEDTAVYYCAADKFGADIHEVDYWGKGTLVTVSS
notes: Nanoantibody in TG1 supernatant in the screening ELISA; also called clone M050
B11: M182 (VHH)
VHH: QVQLVESGGGSVQAGGSLTLSCAASGAVSSINAMGWYRQTPEKVRQLVATMGSGGNTYYAASVKGRFTISRDYAKNTVALQMNHLLPEDTAVYYCAADRFGADIREVDYWGKGTQVTVSS
notes: Nanoantibody in TG1 supernatant in the screening ELISA; also called clone M182
B12: M118 (VHH)
VHH: EVQLVESGGGLVQAGGSLTLSCAASEHTFTIDAMGYYRQIPGRRNERQLVAAAGRTGTTYYNDAVKDRFTIYRDTSKETIILQMNNLRPEDTTMYYCAVERYSDQSRFFGPGTQVTVSS
notes: Nanoantibody in TG1 supernatant in the screening ELISA; also called clone M118
B13: M2339-z11-1 (antibody, IgG4, V domains shown)
VH: EVQLVASGGGLVQPGGSLRLSCALSGFTLRELDEFAIGWFRQAPGKEREGVSCISGTGGITHYADSVKGRFTISRDNSKTTVYLQMNSLRAEDTAVYYCAADERCTDRLIRPPTYWGQGTQVTVSS
notes: Humanized variant of M2339
B14: M2339-z11-2 (antibody, IgG4, V domains shown)
VH: B13 VH with E1Q
notes: Humanized variant of M2339
B15: M2339-z11-3 (antibody, IgG4, V domains shown)
VH: B13 VH with V2L
notes: Humanized variant of M2339
B16: M2339-z11-4 (antibody, IgG4, V domains shown)
VH: B13 VH with V5G
notes: Humanized variant of M2339
B17: M2339-z11-5 (antibody, IgG4, V domains shown)
VH: B13 VH with R90N
notes: Humanized variant of M2339
B18: M2339-z11-6 (antibody, IgG4, V domains shown)
VH: B13 VH with A91S
notes: Humanized variant of M2339
B19: M2339-z11-7 (antibody, IgG4, V domains shown)
VH: B13 VH with V2L, V5G
notes: Humanized variant of M2339
B20: M2339-z11-8 (antibody, IgG4, V domains shown)
VH: B13 VH with E1Q, V2L, V5G, A6E, N77I, S78A, R90N, A91S
notes: Humanized variant of M2339
B21: M2339-z11-9 (antibody, IgG4, V domains shown)
VH: B13 VH with E1Q, V2L, N77I, S78A, R90N, A91S
notes: Humanized variant of M2339
B22: M2339-z11-10 (antibody, IgG4, V domains shown)
VH: B13 VH with E1Q, V2L, A6E, N77I, S78A, R90N, A91S
notes: Humanized variant of M2339
B23: M2339-z11-11 (antibody, IgG4, V domains shown)
VH: B13 VH with E1Q, V2L, V5G, L24A, N77I, S78A, R90N, A91S
notes: Humanized variant of M2339
B24: M2339-z11-12 (antibody, IgG4, V domains shown)
VH: B13 VH with V5G, N77I, S78A, R90N, A91S
notes: Humanized variant of M2339
B25: M2339-z11-13 (antibody, IgG4, V domains shown)
VH: B13 VH with E1Q, V2L, V5G, R90N, A91S
notes: Humanized variant of M2339
B26: M2339-z11-14 (antibody, IgG4, V domains shown)
VH: B13 VH with E1Q, V2L, V5G, N77I, S78A, T80N, R90N, A91S
notes: Humanized variant of M2339
B27: M2339-z11-15 (antibody, IgG4, V domains shown)
VH: B13 VH with E1Q, V2L, V5G, N77I, S78A, V82L, R90N, A91S
notes: Humanized variant of M2339
B28: M2339-z11-16 (antibody, IgG4, V domains shown)
VH: B13 VH with E1Q, V2L, V5G, N77I, S78A
notes: Humanized variant of M2339
B29: M2339-z11-17 (antibody, IgG4, V domains shown)
VH: B13 VH with V2L, V5G, T80N, V82L
notes: Humanized variant of M2339

What follows are binders tested against T1, MSLN.Fc protein (human, UniProt Q13421 296-598, limits assumed) (assay: ELISA, antigen coated, TG1 supernatant).
T1 construct: also called MSLN·hFc; MSLN protein; not shown: human IgG Fc fragment
T1 sequence (Q13421 other isoform, or with tags, fused parts or gaps limits assumed): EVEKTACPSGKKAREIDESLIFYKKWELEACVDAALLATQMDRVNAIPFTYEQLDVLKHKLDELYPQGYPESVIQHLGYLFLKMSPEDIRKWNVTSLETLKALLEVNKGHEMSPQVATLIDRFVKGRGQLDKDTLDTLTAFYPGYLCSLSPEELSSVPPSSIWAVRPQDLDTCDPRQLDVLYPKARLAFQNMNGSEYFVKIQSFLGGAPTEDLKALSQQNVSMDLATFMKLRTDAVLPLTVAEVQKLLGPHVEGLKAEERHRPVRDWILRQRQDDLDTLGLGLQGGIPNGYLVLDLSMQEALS

Binder | ELISA (OD450)
B1 | 1.72
B2 | 2.38
B3 | 1.18
B4 | 1.95
B5 | 2.75
B6 | 0.938
B7 | 1.41
B8 | 2.2
B9 | 1.98
B10 | 2.72
B11 | 1.03
B12 | 2.05

The binders below were run against T2, MD50 protein (assay: ELISA, antigen coated, TG1 supernatant).
T2 construct: range 487-580; also called proximal membrane fragment of mesothelin
T2 sequence (Q13421 495-588): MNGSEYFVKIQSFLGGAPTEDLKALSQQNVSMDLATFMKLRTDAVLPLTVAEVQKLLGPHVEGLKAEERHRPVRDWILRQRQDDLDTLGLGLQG

Binder | ELISA (OD450)
B1 | 1.35
B2 | 1.73
B3 | 1.03
B4 | 0.926
B5 | 2.09
B6 | 2.05
B7 | 1.72
B8 | 2.04
B9 | 2.07
B10 | 0.512
B11 | 1.14
B12 | 2.06

What follows are binders tested against T3, MSLN·His protein (human, UniProt Q13421 296-580, limits assumed) (assay: SPR (Biacore), antibody captured on protein A, MSLN·His as analyte).
T3 construct: Bought protein; also called human MSLN·His antigen; not shown: His tag
From the text: Referring to the method of humanizing nanoantibodies (J. Biol. Chem. 2009; 284: 3273-3284), M2339 was humanized using the method of CDR region transplantation. In IgBLAST (http://www.ncbi.nlm.nih.gov/igblast/), germline with high homology with M2339 was selected as the template in the database. Biacore was used to detect the affinity of the antibody before and after humanization. The purified antibody was flowed through the sensor chip pre-fixed with protein A, and the antibody was captured by protein A. Then five different concentrations of MSLN·His protein were used as the mobile phase, and the association time and dissociation time were 30 min and 60 min, respectively. The binding rate (ka), dissociation rate (kd), and equilibrium constant (kd) were analyzed using Biacore Evaluation Software 2.0 (GE).

T3 sequence (Q13421 other isoform, or with tags, fused parts or gaps limits assumed): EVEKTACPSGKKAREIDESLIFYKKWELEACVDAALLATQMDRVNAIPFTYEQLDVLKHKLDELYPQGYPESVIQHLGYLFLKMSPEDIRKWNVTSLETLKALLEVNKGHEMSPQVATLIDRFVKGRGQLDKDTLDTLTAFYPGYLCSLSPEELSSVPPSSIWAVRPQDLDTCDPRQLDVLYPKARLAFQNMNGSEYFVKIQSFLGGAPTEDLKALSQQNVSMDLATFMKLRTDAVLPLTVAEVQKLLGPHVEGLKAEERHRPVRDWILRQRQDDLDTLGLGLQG

Binder | Kd [nM] | koff [s⁻¹] | kon [M⁻¹ s⁻¹]
B13 | 59.5 | 0.00608 | 102000
B14 | 0.279 | 1.74e-05 | 62300
B15 | 2.78 | 0.000132 | 47400
B16 | 14.9 | 0.00119 | 80000
B17 | 37.7 | 0.00878 | 233000
B18 | 47.4 | 0.00824 | 174000
B19 | 1.3 | 5.18e-05 | 39800
B20 | 0.361 | 1.6e-05 | 44300
B21 | 0.143 | 1.2e-05 | 83800
B22 | 0.239 | 9.81e-06 | 41000
B23 | 0.274 | 1.18e-05 | 43000
B24 | 12.2 | 0.00102 | 83800
B25 | 0.142 | 9.29e-06 | 65200
B26 | 0.228 | 1.01e-05 | 44400
B27 | 0.16 | 1.14e-05 | 71000
B28 | 0.0961 | 6.52e-06 | 67800
B29 | 3.98 | 0.000156 | 39300
